Article PMC12368724, “Impact of Changes in Buffer Ionic Concentration and Mutations on a GH1 β‑Glucosidase Homodimer” (ACS Omega, 2025)

Columns and labels:
[1] = biological target: T1, GH1 β-glucosidase from Spodoptera frugiperda (Sfβgly), wild-type (Spodoptera frugiperda); assay: SEC; dimer to monomers; 100 mM phosphate buffer pH 6 (P100), 5 °C; two Superdex 200 HR10/300 GL columns in tandem; KD is the slope of [M]^2 versus [D] from peak areas at several protein concentrations; details: both partners purified
[2] = biological target: T1, GH1 β-glucosidase from Spodoptera …; assay: SEC; dimer to monomers; 5 mM phosphate buffer pH 6 (P5), 5 °C; KD is the slope of [M]^2 versus [D] from peak areas; details: both partners purified
[3] = biological target: T1, GH1 β-glucosidase from Spodoptera …; assay: SEC; dimer to monomers; 50 mM phosphate buffer pH 6 (P50), 5 °C; KD is the slope of [M]^2 versus [D] from peak areas; details: both partners purified
[4] = biological target: T1, GH1 β-glucosidase from Spodoptera …; assay: SEC; dimer to monomers; 100 mM phosphate buffer pH 6 (P100), 5 °C; two Superdex 200 HR10/300 GL columns in tandem; KD is the slope of [M]^2 versus [D] from peak areas at several protein concentrations; details: both partners purified; remark: listed apart in the source
[5] = biological target: T1, GH1 β-glucosidase from Spodoptera …; assay: SEC; dimer to monomers; 25 mM phosphate buffer pH 6 (P25), 5 °C; KD is the slope of [M]^2 versus [D] from peak areas; details: both partners purified
[6] = biological target: T1, GH1 β-glucosidase from Spodoptera …; assay: SEC-MALS; 90 μM Sfβgly in 100 mM sodium phosphate buffer pH 6 (P100) at 5 °C; two Superdex 200 columns in tandem; details: both partners purified
[7] = biological target: T1, GH1 β-glucosidase from Spodoptera …; assay: SEC; dimer to monomers; 75 mM phosphate buffer pH 6 (P75), 5 °C; KD is the slope of [M]^2 versus [D] from peak areas; details: both partners purified
[8] = biological target: the molecule itself; assay: SEC; dimer to monomers; 100 mM phosphate buffer pH 6 (P100), 5 °C; two Superdex 200 HR10/300 GL columns in tandem; KD is the slope of [M]^2 versus [D] from peak areas at several protein concentrations

B1: GH1 β-glucosidase from Spodoptera frugiperda (Sfβgly), wild-type (enzyme)
chain: QQRRFPDDFLFGTATASYQIEGAWDEDGKGENIWDYMVHNTPEVIRDLSNGDIAADSYHNYKRDVEMMRELGLDAYRFSLSWARILPTGMANEVNPAGIAFYNNYIDEMLKYNITPLITLYHWDLPQKLQELGGFANPLISDWFEDYARVVFENFGDRVKMFITFNEPREICFEGYGSATKAPILNATAMGAYLCAKNLVTAHAKAYYLYDREFRPVQGGQCGITISVNWFGPATPTPEDEMAAELRRQGEWGIYAHPIFSAEGGFPKELSDKIAEKSAQQGYPWSRLPEFTEEEKAFVRGTSDFFGVNHYTAFLVSATERKGPYPVPSLLDDVDTGSWADDSWLKSASAWLTLAPNSIHTALTHLNNLYNKPVFYITENGWSTDESRENSLIDDDRIQYYRASMESLLNCLDDGINLKGYMAWSLMDNFEWMEGYIERFGLYEVDFSDPARTRTPRKAAFVYKHIIKHRVVDYEYEPETMVMTIDEGH
modifications: Monomer given, self-associates to a C2 homodimer. Limits by convention from the 5CG0 entity; paper numbering = entity + 20 (precursor numbering) / Monomer given, self-associates to a C2 homodimer. …
Kd [1]: 7 µM | Kd [2]: 135 µM | Kd [3]: 9.5 µM | Kd [4]: 8 µM | Kd [5]: 78 µM | stoichiometry N [6]: 2 | Kd [7]: 9.9 µM

B2: Sfβgly mutant D166S (enzyme)
chain: QQRRFPDDFLFGTATASYQIEGAWDEDGKGENIWDYMVHNTPEVIRDLSNGDIAADSYHNYKRDVEMMRELGLDAYRFSLSWARILPTGMANEVNPAGIAFYNNYIDEMLKYNITPLITLYHWDLPQKLQELGGFANPLISDWFESYARVVFENFGDRVKMFITFNEPREICFEGYGSATKAPILNATAMGAYLCAKNLVTAHAKAYYLYDREFRPVQGGQCGITISVNWFGPATPTPEDEMAAELRRQGEWGIYAHPIFSAEGGFPKELSDKIAEKSAQQGYPWSRLPEFTEEEKAFVRGTSDFFGVNHYTAFLVSATERKGPYPVPSLLDDVDTGSWADDSWLKSASAWLTLAPNSIHTALTHLNNLYNKPVFYITENGWSTDESRENSLIDDDRIQYYRASMESLLNCLDDGINLKGYMAWSLMDNFEWMEGYIERFGLYEVDFSDPARTRTPRKAAFVYKHIIKHRVVDYEYEPETMVMTIDEGH
Kd [8]: 100 µM

B3: Sfβgly mutant M210A (enzyme)
chain: QQRRFPDDFLFGTATASYQIEGAWDEDGKGENIWDYMVHNTPEVIRDLSNGDIAADSYHNYKRDVEMMRELGLDAYRFSLSWARILPTGMANEVNPAGIAFYNNYIDEMLKYNITPLITLYHWDLPQKLQELGGFANPLISDWFEDYARVVFENFGDRVKMFITFNEPREICFEGYGSATKAPILNATAAGAYLCAKNLVTAHAKAYYLYDREFRPVQGGQCGITISVNWFGPATPTPEDEMAAELRRQGEWGIYAHPIFSAEGGFPKELSDKIAEKSAQQGYPWSRLPEFTEEEKAFVRGTSDFFGVNHYTAFLVSATERKGPYPVPSLLDDVDTGSWADDSWLKSASAWLTLAPNSIHTALTHLNNLYNKPVFYITENGWSTDESRENSLIDDDRIQYYRASMESLLNCLDDGINLKGYMAWSLMDNFEWMEGYIERFGLYEVDFSDPARTRTPRKAAFVYKHIIKHRVVDYEYEPETMVMTIDEGH
Kd [8]: 3600 µM

B4: Sfβgly mutant L214A (enzyme)
chain: QQRRFPDDFLFGTATASYQIEGAWDEDGKGENIWDYMVHNTPEVIRDLSNGDIAADSYHNYKRDVEMMRELGLDAYRFSLSWARILPTGMANEVNPAGIAFYNNYIDEMLKYNITPLITLYHWDLPQKLQELGGFANPLISDWFEDYARVVFENFGDRVKMFITFNEPREICFEGYGSATKAPILNATAMGAYACAKNLVTAHAKAYYLYDREFRPVQGGQCGITISVNWFGPATPTPEDEMAAELRRQGEWGIYAHPIFSAEGGFPKELSDKIAEKSAQQGYPWSRLPEFTEEEKAFVRGTSDFFGVNHYTAFLVSATERKGPYPVPSLLDDVDTGSWADDSWLKSASAWLTLAPNSIHTALTHLNNLYNKPVFYITENGWSTDESRENSLIDDDRIQYYRASMESLLNCLDDGINLKGYMAWSLMDNFEWMEGYIERFGLYEVDFSDPARTRTPRKAAFVYKHIIKHRVVDYEYEPETMVMTIDEGH
Kd [8]: 5400 µM

B5: Sfβgly mutant N112S (enzyme)
chain: QQRRFPDDFLFGTATASYQIEGAWDEDGKGENIWDYMVHNTPEVIRDLSNGDIAADSYHNYKRDVEMMRELGLDAYRFSLSWARILPTGMASEVNPAGIAFYNNYIDEMLKYNITPLITLYHWDLPQKLQELGGFANPLISDWFEDYARVVFENFGDRVKMFITFNEPREICFEGYGSATKAPILNATAMGAYLCAKNLVTAHAKAYYLYDREFRPVQGGQCGITISVNWFGPATPTPEDEMAAELRRQGEWGIYAHPIFSAEGGFPKELSDKIAEKSAQQGYPWSRLPEFTEEEKAFVRGTSDFFGVNHYTAFLVSATERKGPYPVPSLLDDVDTGSWADDSWLKSASAWLTLAPNSIHTALTHLNNLYNKPVFYITENGWSTDESRENSLIDDDRIQYYRASMESLLNCLDDGINLKGYMAWSLMDNFEWMEGYIERFGLYEVDFSDPARTRTPRKAAFVYKHIIKHRVVDYEYEPETMVMTIDEGH
Kd [8]: 1200 µM

B6: Sfβgly mutant N157S (enzyme)
chain: QQRRFPDDFLFGTATASYQIEGAWDEDGKGENIWDYMVHNTPEVIRDLSNGDIAADSYHNYKRDVEMMRELGLDAYRFSLSWARILPTGMANEVNPAGIAFYNNYIDEMLKYNITPLITLYHWDLPQKLQELGGFASPLISDWFEDYARVVFENFGDRVKMFITFNEPREICFEGYGSATKAPILNATAMGAYLCAKNLVTAHAKAYYLYDREFRPVQGGQCGITISVNWFGPATPTPEDEMAAELRRQGEWGIYAHPIFSAEGGFPKELSDKIAEKSAQQGYPWSRLPEFTEEEKAFVRGTSDFFGVNHYTAFLVSATERKGPYPVPSLLDDVDTGSWADDSWLKSASAWLTLAPNSIHTALTHLNNLYNKPVFYITENGWSTDESRENSLIDDDRIQYYRASMESLLNCLDDGINLKGYMAWSLMDNFEWMEGYIERFGLYEVDFSDPARTRTPRKAAFVYKHIIKHRVVDYEYEPETMVMTIDEGH
Kd [8]: 28 µM
